Measurements reported in patent US20220089640A1 (published 2022).
Numbered stars: 1 amine (or outer) side, 2 acyl side, 3 side chain; on linkers, the order of the positions; unused ones are H or OH. Bridge positions count the residues as written; N and C are the ends. Square brackets hold non-standard residues; d marks the D form. Tyr(OMe) = COc1ccc(C[C@H](N[*:1])C(=O)[*:2])cc1; Trp(5-F) = N[C@@H](Cc1c[nH]c2ccc(F)cc12)C(=O)O; mXylylene = c1cc(C[*:1])cc(C[*:2])c1; Mpa = O=C(O)CCS

Assays:
biotinylated PCSK9 [1] = target: T1, biotinylated PCSK9 (UniProt Q8NBP7 31-692, limits assumed, biotinylated (site not stated)); test: given in the description of the Alexa FRET Standard assay; method not stated
T1 construct: also called europium-labeled PCSK9

biotinylated PCSK9 [2] = target: T1, biotinylated PCSK9; test: given in the description of the Alexa FRET Plus assay; method not stated

T1 sequence (Q8NBP7 31-692 limits assumed): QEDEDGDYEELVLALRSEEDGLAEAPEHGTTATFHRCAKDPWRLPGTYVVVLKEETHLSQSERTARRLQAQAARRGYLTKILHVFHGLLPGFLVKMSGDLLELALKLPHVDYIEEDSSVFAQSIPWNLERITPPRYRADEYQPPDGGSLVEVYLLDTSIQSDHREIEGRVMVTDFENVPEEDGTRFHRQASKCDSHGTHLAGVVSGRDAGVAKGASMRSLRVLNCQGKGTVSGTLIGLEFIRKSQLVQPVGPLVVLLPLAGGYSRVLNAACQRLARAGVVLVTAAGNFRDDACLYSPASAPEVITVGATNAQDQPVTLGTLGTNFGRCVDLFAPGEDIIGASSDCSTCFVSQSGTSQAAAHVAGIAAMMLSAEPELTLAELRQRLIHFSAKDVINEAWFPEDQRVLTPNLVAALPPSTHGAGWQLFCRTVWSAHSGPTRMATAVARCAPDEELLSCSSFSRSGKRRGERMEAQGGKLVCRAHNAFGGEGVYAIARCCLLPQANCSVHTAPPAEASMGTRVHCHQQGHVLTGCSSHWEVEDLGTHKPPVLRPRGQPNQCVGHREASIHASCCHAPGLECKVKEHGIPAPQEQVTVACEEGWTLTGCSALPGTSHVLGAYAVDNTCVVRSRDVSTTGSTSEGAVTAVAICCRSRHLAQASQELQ

Kd (biotinylated PCSK9 [1]) | Kd (biotinylated PCSK9 [2]) | Binder
83 nM |  | [Mpa]K(ALEXAFLUOR 647)G[Trp(5-F)][Trp(5-F)]DHY[2‑methylproline]C-NH2 (linker N-10 via mXylylene, also called AlexaFluor647 (AF) tagged cyclic peptide; AF cyclic peptide) [Reagent A]
 | 35 nM | [Mpa]K(ALEXAFLUOR 647)[dA][Trp(5-F)][Trp(5-F)]DH[Tyr(OMe)][2‑methylproline]C-NH2 (linker N-10 via mXylylene, also called AlexaFluor647 (AF) tagged cyclic peptide; AF cyclic peptide) [Reagent B]
